# The DeepSol protein solubility set
# Assay: soluble on expression in E. coli; label from the status in PepcDB or PDB records
row,Sequence,soluble on expression in E. coli
1,MESIFHEKQEGSLCAQHCLNNLLQGEYFSPVELSSIAHQLDEEERMRMAEGGVTSEDYRTFLQQPSGNMDDSGFFSIQVISNALKVWGLELILFNSPEYQRLRIDPINERSFICNYKEHWFTVRKLGKQWFNLNSLLTGPELISDTYLALFLAQLQQEGYSIFVVKGDLPDCEADQLLQMIR,soluble
2,MESTKSYDIPILRNVSRSFSVHYRDYLQRCGIFVPKEGNSSGPDAYVVFHNGQTRYVVGFSFKFYHKSEFSKRNIEEEAKKFFKGVVSVLNDESFSSVQLRFQFVMVVCTSYGRSVVFSSEEQNIVEDASYLVTEHSSGSTLNESSRSCLQLVIVSQRNLEMYLGRDNVETLRKIGEASREEFSKDFSVWCETVFESMSNEYVSPLEQSNVTLRVARNIRPRTNEENRMQIEELQTAMKVERSVAASSSLSSSFDWNTFLREYCGLSEEDVAYCLPKVEDIDMDELPAVTKEILRDLGIDKPALRLKIRSSIRSYLANER,soluble
3,METDGDPTNEIPGSSMAFEVANHTVTEEPSPLDRILAEGRSFNGGNWSSDDLRSLLDGVMKYGTKIEAINYIHRNIVKKRSIEEIKAKIDEIREIIKEHKEIILPECYKNKWIEAGHHNITPPPFCQVDPNDDWSSIMGKIVDHHHGSINKTLPSLRDTYETLFENLALESKTHENAVVTKLLTAKATRTDSQNIRWPVIYRFMKACATLEEQMPALNELEAAVVSKVLDTIETEATTTPDTEKSILAGIFSECQQGNYRFCEQDYPPNVMAAVQLFVDPLRTRFHAIPEVASEVELINFTKDNQPSTSSN,not soluble
4,METFYTIGRSPRADIRIKSQFVSRIHAVLVRKSSDDVQAAYRIIDGDEDGQSSVNGLMINGKKVQEHIIQTGDEIVMGLEHHHHHH,not soluble
5,METIWIPHLHTALAYMHERFLELFILPDSCPSKKLEELQQKEGN,not soluble
6,METKYAFARQIIKEAGLFIKSKMSEQLDIQVKTQFDDLVTNVDQETQQLLMDRIHQTYPCDAILAEENDVRHPINQGNVWVIDPIDGTVNFIVQGSQFAVMIAYYEQGIGQFGLIYDVMADQLLAGGGDFEVTLNGDKLPAYQEKPLERSLIGCNAGMFARNDRNLAHLIAKTLGVRVYGGAGICMVKVMKQELLAYFSFIQPWDYAAAKVLGDKLGYVLLTIDGYEPDFQTRQKIMFVPKCQLTRIASFLTKDSAITLEDQ,not soluble
7,METNIVEVENFVQQSEERRGSAFTQEVKRYLERYPNTQYVDVLLTDLNGCFRGKRIPVSSLKKLEKGCYFPASVFAMDILGNVVEEAGLGQEMGEPDRTCVPVLGSLTPSAADPEFIGQMLLTMVDEDGAPFDVEPRNVLNRLWQQLRQRGLFPVVAVELEFYLLDRQRDAEGYLQPPCAPGTDDRNTQSQVYSVDNLNHFADVLNDIDELAQLQLIPADGAVAEASPGQFEINLYHTDNVLEACDDALALKRLVRLMAEKHKMHATFMAKPYEEHAGSGMHIHISMQNNRGENVLSDAEGEDSPLLKKMLAGMIDLMPSSMALLAPNVNSYRRFQPGMYVPTQASWGHNNRTVALRIPCGDRHNHRVEYRVAGADANPYLVMAAIFAGILHGLDNELPLQEEVEGNGLEQEGLPFPIRQSDALGEFIENDHLRRYLGERFCHVYHACKNDELLQFERLITETEIEWMLKNA,soluble
8,METSTIIDGGTSFVIDSEKKTITIYVKTADGSSVKAEGCTETVIESGTESTLNIKSSLIILKGNIIEFNCGGDPYTYGNQIKSLNVQGLKNLEKLNCSGNRLTELNIEGLNNLKELACRYNRLSSLDVAHLPALEFLWCTANLLTDLNLTGMSSLKRLGCNNNKLEVLNLEGLTSLEHLWCGNNLLNKLNLTDLKSLTGLNCEKNKLTELDLTGLTALEHLWCSKNLLTKLNLTKALHLQSLDCSSNMLTELNTEELNDLQYLNSSGNCLPLS,not soluble
9,MEVAPSFSSVLKDCAVIEGQDFVLQCSVRGTPVPRITWLLNGQPIQYARSTCEAGVAELHIQDALPEDHGTYTCLAENALGQVSCSAWVTVH,soluble
10,MEVDCRVISRGKGRGPVLVSTEPLSFLGGVDPGTGRVIDQKHPLHGRSIRGKVLLIPGGKGSTVGSYVIFQMAKNETAPAAIICLNAEPIIATGAIMAGIPMVDRPSEDLLGLLEDSMEVEVDADEGKIRF,soluble
11,MEVITFESEAYKALVGKIEKIAGYVAEAQLPSEEKKETWLDSNQLAEALGISTRTLQRLRDENLISYSMLRGRCMYKLSEVERCLEERTIRCKPQTLEDFRKNYLTRTGNDKKG,not soluble
12,MEVKIFNTQDVQDFLRVASGLEQEGGNPRVKQIIHRVLSDLYKAIEDLNITSDEYWAGVAYLNQLGANQEAGLLSPGLGFDHYLDMRMDAEDAALGIENATPRTIEGPLYVAGAPESVGYARMDDGSDPNGHTLILHGTIFDADGKPLPNAKVEIWHANTKGFYSHFDPTGEQQAFNMRRSIITDENGQYRVRTILPAGYGCPPEGPTQQLLNQLGRHGNRPAHIHYFVSADGHRKLTTQINVAGDPYTYDDFAYATREGLVVDAVEHTDPEAIKANDVEGPFAEMVFDLKLTRLVDGVDNQVVDRPRLAV,soluble
13,MEWTEEIVSKGFALYVALSKKGFITSKEDEYFQWYEERGVQDFIRKVIEPTGKVMIFLDEQDGVIQMVPEVENETMSYTNDDLKKELGFKDNKEIHLFYFILFILIAELEQPYDTESADRMYLPMDELLDKMNGYIEQYERLGEEKLEELSDEYDVDVAGIVEAWGRMADFKEGATSHIRTKDNRRMYIEKTLKFLEKEKLIRIREHTNISVTNKMKNIISHYYHNVENKSKIHDLLLVTREGTVGEEEE,not soluble
14,MEYDVYVRVSKEDVHLLNYLLEVEEHMFNIRKYEDGVLKIITPFPEEAIKLLEGCKEMVDLEILEVKENPGEA,soluble
15,MEYFNVGKIVNTQGLQGEMRVLSVSDFAEERFKKGSQLALFDDKDRFVQEVTIVSHRKQKHFDIIKFKDMYHINAIEKYKGYTLKVSKDNQGDLQEGEFYYHQIIGMAVYEKDVLIGHVKEILQPGANDVWIVKRQGKRDLLLPYIPPVVLNVDVPNKRVDVELMEGLDDEDLEHHHHHH,soluble
16,MEYGIVYLLTNPVMPGLVKIGMTTQEGIDKRMKELYTTGVPIPFECKFACKVKKSDCLKIEKALHKAFDPQRINQNREFFRINVEQAQAILELFHHEDVTEEVTDEIQNDLTDEDKAASTKAQAKRPPLNFYEMGLQKGDILIWKDDPSISVTVLSERKVCYEGEETSISALSAKLKGYKVKHIQPTPHWFFNDRSLSEIYDETYPFEE,not soluble
17,MEYHMGNTMTKAIYDKFKSATPYGNKVATGPTPTEAVDITVSVGGFKVGDQNYPINPKITFTNNTGQAIPGGTEFQFDIPVSAPDNAKDQSGGGLKVIASGHTRANNIGGLDGVMHRVSFSLPAWKDLPAGGTYELDMVYYLPISGPANYSVISGGKEFAFKFEQPDLPIGDLNALEHHHHHH,soluble
18,MEYPRVMIRFAVIGTNWITRQFVEAAHESGKYKLTAVYSRSLEQAQHFANDFSVEHLFTSLEAMAESDAIDAVYIASPNSLHFSQTQLFLSHKIHVICEKPLASNLAEVDAAIACARENQVVLFEAFKTACLPNFHLLRQALPKAGKLRKVFFNYCQYSSRYQRYLDGENPNTFNPAFSNGSIMDIGFYCLASAVALFGEPKSVQATASLLASGVDAHGVVVMDYGDFSVTLQHSKVSDSVLGSEIQGEAGSLVIEKLSECQKVCFVPRGSQMQDLTQPQHINTMLYEAELFATLVDEHLVDHPGLAVSRITAKLLTEIRRQTGVIFPADSVKLYLPK,not soluble
19,MEYSYIPSAALYNNADIFQFFPRNKRLNSHQKSRLDEHARKMAAFMMERQEEYRYYENLANQEQFSDDNGMESGFCSGATSTGQSASTSPAPVQLIPNPFFDPEYVAAKTQSPVKLVTNPFFNPELVEEIKKKSQKRNEKSAPVSA,not soluble
20,MFALHRHFPNPLPSNPSISRHEQKVADHLASIIKESYYGDTSVEESEYLVQEEYGDWEPEVFEPYDCVLPDQDDVLFGEKAVSREELDKAITFYRSGKIGSRPITTMHHSYRWIRTDAHMNKLRKYEKDKKAFQENVRVRLAQLTQRLYEEVKEKLDNGVNLHDSDLMAMALEINTREMKLQNFKASQSWITRWKQSHRIVSRRVTKFVTRKCLINKDAIKKNADDFVKNARTEISNYHPSMVFNCDQTGIQKELYPARSLAFMGEKTVERLAQSKSSLTHSFTFLPMIFLDGSMGPKAFMVIAEPKGQFPPSRPIPNCPNLEVRAGYKTHIMTKQLMCDFFESCVFIPSVPKKLYIMLDSWPAFKDHTTIKNLVPNGHDVVIRNIPEHTTGMIQPLDVYWNAPWKSLIKKFTAYALRTQTDYVIAQRNNAICMVSVLYHQISAEHFRPFLQHCWKKAGYVGAANTSSTPFLTPAQYCIDHGDTVICYHTGCNHLGFIRCARCKIFPARTGKNFSHILIVENVSFPIQYFFLNIAPFILVIP,not soluble
21,MFDAVKKIVLSYRVSPNRDTLSAIKAIDDVLRKLASLPDDLSFVVDGNPIYRLAQHFFAQHGISFDVRQVIGLTNEDPVSEEFRPLKQIIERFNRTFKGNYRPTHGFGAEEGSVSFVTLFVAYFNFLRPHSALEGRVPVVIPELADLPHMPARWTKLIAMAQAFLQQEAA,not soluble
22,MFDFDGYMLRKAKSVNKALEAAVQMKEPLKIHESMRYSLLAGGKRVRPMLCIAACELVGGDESTAMPAACAVEMIHTMSLMHDDLPCMDNDDLRRGKPTNHMAFGESVAVLAGDALLSFAFEHVAAATKGAPPERIVRVLGELAVSIGSEGLVAGQVVDVCSEGMAEVGLDHLEFIHHHKTAALLQGSVVLGAILGGGKEEEVAKLRKFANCIGLLFQVVDDILDVTKSSKELGKTAGKDLVADKTTYPKLIGVEKSKEFADRLNREAQEQLLHFHPHRAAPLIALANYIAYRDN,soluble
23,MFEKVKVSTCFHVTLLKDYIVFYVSNNLNFASRWPRRRRGQRLLPTALRAMMLNPTEALLAEVSKARTSGARITVEEFIPIYKKVEAACGRSTTLKEFQTLLSHFDREGNGQIMLMELKSMLQNGGEKMTNQEARALKPATGLDTIYRNLNFNHKFTLDHSAIGFLRTNQFFDVQMIPVSRFFTVQDPSNALLSYTQKGIDFFEKLGQFSKEKAAIEEEYSTKLRSLAKKYAKKSEEDDEILKSVSYTSSFNSFLQQLDQIATRHQTSAEHIRGGVVSYVASKTCQMRSSRKNAINDLKTINDKLEDQINEMCKSGKCYLKSFKDAENSYQKFYKADKNLEISRLELEKARALANARNEACELAKQDYSALVRKTNAEQKRYHVELLPVIFARLKAVDKECIADMRQVLQKIVSFDDSLADSTEECRKIMQREVGKIDAEGDAQLVLKSVEATIEQPAPFEIEDLGDPKNCDSRTNDSADGSGGKLLKSSPSKNRIIRNFLGILKEKEADEKPEASNNDQLMYTDKSKPAHVRLSCLRSKIRDMEKQLEQAIQGREGITRLQQAYYTNPQHGNPSACTEPLISYAKKIEKLKMDIHNLKEFYAMLEMSVEEGQERSFGGRDTPDTTRSMSGSSTNQSSSKTIEDVLSGEAGNSSSADDSSKNILRQLFTTPKRLISSPKTSKSSTPTPLRRRAEISSPKILRSSFSGAIRKSLSTPDSVKVETAVTVTALFEFAKSSAETMSIEQGEILLVLEHDHGDGWTRTKKKHNEESGFVPTSYLQFPQ,not soluble
24,MFELVDNIAQTAVIKVIGVGGGGGNAVNHMAKNNVEGVEFICANTDAQALKNIAARTVLQLGPGVTKGLGAGANPEVGRQAALEDRERISEVLEGADMVFITTGMGGGTGTGAAPIIAEVAKEMGILTVAVVTRPFPFEGRKRMQIADEGIRALAESVDSLITIPNEKLLTILGKDASLLAAFAKADDVLAGAVRGISDIIKRPGMINVDFADVKTVMSEMGMAMMGTGCASGPNRAREATEAAIRNPLLEDVNLQGARGILVNITAGPDLSLGEYSDVGNIIEQFASEHATVKVGTVIDADMRDELHVTVVATGLGARLEKPVKVVDNTVQGSAAQAAAPAQREQQSVNYRDLDRPTVMRNQSHGSAATAAKLNPQDDLDYLDIPAFLRRQAD,soluble
